Measured values as given in patent publication US20240424129A1, “RECOMBINANT FUSION ANTIBODY, AND ANTIBODY-DRUG CONJUGATE AND USE THEREOF” (SUN YAT-SEN UNIVERSITY, priority 2021, published 2024).

B1: VHH0: non-fused anti-HER2 nanobody VHH-S84C-His6, SEQ ID NO: 32 (protein)
VHH: EVQLVESGGGLVQAGGSLRLSCAASGITFSINTMGWYRQAPGKQRELVALISSIGDTYYADSVKGRFTISRDNAKNTVYLQMNCLKPEDTAVYYCKRFRTAAQGTDYWGQGTQVTVSSHHHHHH
modifications: His6 tag
B2: Fused VHH2-MMAF (conjugate)
VHH: EVQLVESGGGLVQAGGSLRLSCAASGITFSINTMGWYRQAPGKQRELVALISSIGDTYYADSVKGRFTISRDNAKNTVYLQMNCLKPEDTAVYYCKRFRTAAQGTDYWGQGTQVTVSSHHHHHHLPETGGGRRRASVSLLDDELMSL
B3: Fused VHH20-MMAF (conjugate)
VHH: EVQLVESGGGLVQAGGSLRLSCAASGITFSINTMGWYRQAPGKQRELVALISSIGDTYYADSVKGRFTISRDNAKNTVYLQMNCLKPEDTAVYYCKRFRTAAQGTDYWGQGTQVTVSSHHHHHHLPETGGGRRRSFHDDSDEDLLHI
B4: Fused VHH4-MMAF (conjugate)
VHH: EVQLVESGGGLVQAGGSLRLSCAASGITFSINTMGWYRQAPGKQRELVALISSIGDTYYADSVKGRFTISRDNAKNTVYLQMNCLKPEDTAVYYCKRFRTAAQGTDYWGQGTQVTVSSHHHHHHHLPETGGGASSGLDDLDLLGK
B5: Fused VHH6-MMAF (conjugate)
VHH: EVQLVESGGGLVQAGGSLRLSCAASGITFSINTMGWYRQAPGKQRELVALISSIGDTYYADSVKGRFTISRDNAKNTVYLQMNCLKPEDTAVYYCKRFRTAAQGTDYWGQGTQVTVSSHHHHHHHLPETGGGNALSWLDEELLCL
B6: Fused VHH5-MMAF (conjugate)
VHH: EVQLVESGGGLVQAGGSLRLSCAASGITFSINTMGWYRQAPGKQRELVALISSIGDTYYADSVKGRFTISRDNAKNTVYLQMNCLKPEDTAVYYCKRFRTAAQGTDYWGQGTQVTVSSHHHHHHLPETGGGVQNPSADRNLLDL
B7: Fused VHH1-MMAF (conjugate)
VHH: EVQLVESGGGLVQAGGSLRLSCAASGITFSINTMGWYRQAPGKQRELVALISSIGDTYYADSVKGRFTISRDNAKNTVYLQMNCLKPEDTAVYYCKRFRTAAQGTDYWGQGTQVTVSSHHHHHHLPETGGGASVSLLDDELMSL
B8: Fused VHH19-MMAF (conjugate)
VHH: EVQLVESGGGLVQAGGSLRLSCAASGITFSINTMGWYRQAPGKQRELVALISSIGDTYYADSVKGRFTISRDNAKNTVYLQMNCLKPEDTAVYYCKRFRTAAQGTDYWGQGTQVTVSSHHHHHHLPETGGGRRRRKSDEDLLHI
B9: Fused VHH14-MMAF (conjugate)
VHH: EVQLVESGGGLVQAGGSLRLSCAASGITFSINTMGWYRQAPGKQRELVALISSIGDTYYADSVKGRFTISRDNAKNTVYLQMNCLKPEDTAVYYCKRFRTAAQGTDYWGQGTQVTVSSHHHHHHLPETGGGEESEERDDHLLPM
B10: Fused VHH13-MMAF (conjugate)
VHH: EVQLVESGGGLVQAGGSLRLSCAASGITFSINTMGWYRQAPGKQRELVALISSIGDTYYADSVKGRFTISRDNAKNTVYLQMNCLKPEDTAVYYCKRFRTAAQGTDYWGQGTQVTVSSHHHHHHLPETGGGSFHDDSDEDLLHI
B11: Fused VHH3-MMAF (conjugate)
VHH: EVQLVESGGGLVQAGGSLRLSCAASGITFSINTMGWYRQAPGKQRELVALISSIGDTYYADSVKGRFTISRDNAKNTVYLQMNCLKPEDTAVYYCKRFRTAAQGTDYWGQGTQVTVSSHHHHHHLPETGGGASVSLLDDEL
B12: Fused VHH15-MMAF (conjugate)
VHH: EVQLVESGGGLVQAGGSLRLSCAASGITFSINTMGWYRQAPGKQRELVALISSIGDTYYADSVKGRFTISRDNAKNTVYLQMNCLKPEDTAVYYCKRFRTAAQGTDYWGQGTQVTVSSHHHHHHLPETGGGSYKYSKVNKE
B13: Fused VHH16-MMAF (conjugate)
VHH: EVQLVESGGGLVQAGGSLRLSCAASGITFSINTMGWYRQAPGKQRELVALISSIGDTYYADSVKGRFTISRDNAKNTVYLQMNCLKPEDTAVYYCKRFRTAAQGTDYWGQGTQVTVSSHHHHHHLPETGGGPAAYRGVGDD
B14: Fused VHH24-MMAF (conjugate)
VHH: EVQLVESGGGLVQAGGSLRLSCAASGITFSINTMGWYRQAPGKQRELVALISSIGDTYYADSVKGRFTISRDNAKNTVYLQMNCLKPEDTAVYYCKRFRTAAQGTDYWGQGTQVTVSSHHHHHHHLPETGGGRRRRKRKRSHAGYQTI
B15: Fused VHH18-MMAF (conjugate)
VHH: EVQLVESGGGLVQAGGSLRLSCAASGITFSINTMGWYRQAPGKQRELVALISSIGDTYYADSVKGRFTISRDNAKNTVYLQMNCLKPEDTAVYYCKRFRTAAQGTDYWGQGTQVTVSSHHHHHHLPETGGGRRLRSDEDLLHI
B16: Fused VHH25-MMAF (conjugate)
VHH: EVQLVESGGGLVQAGGSLRLSCAASGITFSINTMGWYRQAPGKQRELVALISSIGDTYYADSVKGRFTISRDNAKNTVYLQMNCLKPEDTAVYYCKRFRTAAQGTDYWGQGTQVTVSSHHHHHHHLPETGGGKHHHAGYEQF
B17: Fused VHH9-MMAF (conjugate)
VHH: EVQLVESGGGLVQAGGSLRLSCAASGITFSINTMGWYRQAPGKQRELVALISSIGDTYYADSVKGRFTISRDNAKNTVYLQMNCLKPEDTAVYYCKRFRTAAQGTDYWGQGTQVTVSSHHHHHHGGGSDEDLLHI
B18: Fused VHH17-MMAF (conjugate)
VHH: EVQLVESGGGLVQAGGSLRLSCAASGITFSINTMGWYRQAPGKQRELVALISSIGDTYYADSVKGRFTISRDNAKNTVYLQMNCLKPEDTAVYYCKRFRTAAQGTDYWGQGTQVTVSSHHHHHHLPETGGGRRRSDEDLLHI
B19: Fused VHH21-MMAF (conjugate)
VHH: EVQLVESGGGLVQAGGSLRLSCAASGITFSINTMGWYRQAPGKQRELVALISSIGDTYYADSVKGRFTISRDNAKNTVYLQMNCLKPEDTAVYYCKRFRTAAQGTDYWGQGTQVTVSSHHHHHHLPETGGGRRLRKSFHDDSDEDLLHI
B20: Fused VHH22-MMAF (conjugate)
VHH: EVQLVESGGGLVQAGGSLRLSCAASGITFSINTMGWYRQAPGKQRELVALISSIGDTYYADSVKGRFTISRDNAKNTVYLQMNCLKPEDTAVYYCKRFRTAAQGTDYWGQGTQVTVSSHHHHHHLPETGGGRRRRKSFHDDSDEDLLHI
B21: Fused VHH26-MMAF (conjugate)
VHH: EVQLVESGGGLVQAGGSLRLSCAASGITFSINTMGWYRQAPGKQRELVALISSIGDTYYADSVKGRFTISRDNAKNTVYLQMNCLKPEDTAVYYCKRFRTAAQGTDYWGQGTQVTVSSHHHHHHHLPETGGGRRLRKHHHAGYEQF
B22: Fused VHH23-MMAF (conjugate)
VHH: EVQLVESGGGLVQAGGSLRLSCAASGITFSINTMGWYRQAPGKQRELVALISSIGDTYYADSVKGRFTISRDNAKNTVYLQMNCLKPEDTAVYYCKRFRTAAQGTDYWGQGTQVTVSSHHHHHHHLPETGGGRKRSHAGYQTI
B23: Fused VHH12-MMAF (conjugate)
VHH: EVQLVESGGGLVQAGGSLRLSCAASGITFSINTMGWYRQAPGKQRELVALISSIGDTYYADSVKGRFTISRDNAKNTVYLQMNCLKPEDTAVYYCKRFRTAAQGTDYWGQGTQVTVSSHHHHHHGGGGSGGGGSGGGGSSDEDLLHI
B24: Fused VHH10-MMAF (conjugate)
VHH: EVQLVESGGGLVQAGGSLRLSCAASGITFSINTMGWYRQAPGKQRELVALISSIGDTYYADSVKGRFTISRDNAKNTVYLQMNCLKPEDTAVYYCKRFRTAAQGTDYWGQGTQVTVSSHHHHHHGGGGGSDEDLLHI
B25: Fused VHH11-MMAF (conjugate)
VHH: EVQLVESGGGLVQAGGSLRLSCAASGITFSINTMGWYRQAPGKQRELVALISSIGDTYYADSVKGRFTISRDNAKNTVYLQMNCLKPEDTAVYYCKRFRTAAQGTDYWGQGTQVTVSSHHHHHHGGGGSSDEDLLHI

These molecules were tested on SKBR3 cells (assay: In-vitro cytotoxicity, CCK8 cell viability). Conditions: SKBR3, 48 h, CCK8.
Format: cell-based, human
Experimental: (§1) In this example, human breast cancer cell line SKBR3 with high expression of HER2 and human ovarian cancer cell line SKOV3 with high expression of HER2 were chosen to evaluate the ability of the recombinant-fusion-antibody-drug conjugates to inhibit the growth of cancer cells. The recombinant-fusion-antibody-drug conjugates of different concentrations were added to a 96-well plate seeded with SKBR3 or SKOV3 cells. After treatment for 48 h, the viability of cells was calculated using a CCK8 kit.
Cell viability was measured using different concentrations of MMAF, VHH0-MMAF, or different recombinant-fusion-nanobody-drug conjugates (fused VHH1-MMAF to fused VHH26-MMAF). The half-maximal inhibitory concentration IC50 was calculated (FIGS. 14A-14C, and Table 7). FIGS. 14A, 14B and 14C respectively show the viability of SKBR3 cells treated with the recombinant-fusion-nanobody-drug conjugates, including fused VHH1-MMAF to fused VHH6-MMAF, fused VHH7-MMAF to fused VHH22-MMAF, and fused VHH23-MMAF to fused VHH26-MMAF. […] Data are expressed as the mean (n=3).
SKBR3 and SKOV3 cells were chosen to evaluate the ability of the recombinant-fusion-full-length-antibody-drug conjugates to inhibit the growth of cancer cells. […] The half-maximal inhibitory concentration IC50 was calculated.

For B1, which “viability of the treated cells” value is on record?
The value was “approximately 100%”.

Same assay, conditions: SKBR3, 48 h, CCK8, mean n=3; Table 7

How did the IC50 turn out when B2 was run?
Its IC50 is 0.126 nM.

B3 was tested. Which IC50 did it give?
The IC50 was 0.038 nM.

Which IC50 does the source give for B4 here?
Its IC50 is 0.885 nM.

For B5, which IC50 is on record?
Its IC50 is 0.791 nM.

With B6 as the molecule, how does the IC50 read?
Its IC50 is 0.791 nM.

For B7, which IC50 is on record?
Its IC50 is 1.34 nM.

With B8 as the molecule, how does the IC50 read?
The IC50 was 0.564 nM.

For B9, which IC50 is on record?
The IC50 was 0.069 nM.

Which IC50 does the source give for B10 here?
Its IC50 is 0.0798 nM.

How did the IC50 turn out when B11 was run?
The IC50 was 0.109 nM.

Which IC50 does the source give for B12 here?
Its IC50 is 0.051 nM.

Which IC50 does the source give for B13 here?
The IC50 was 0.027 nM.

For B14, which IC50 is on record?
The IC50 was 0.128 nM.

With B15 as the molecule, how does the IC50 read?
The IC50 was 0.394 nM.

B16 was tested. Which IC50 did it give?
The IC50 was 0.466 nM.

For B17, which IC50 is on record?
Its IC50 is 0.294 nM.

For B18, which IC50 is on record?
The IC50 was 0.165 nM.

With B19 as the molecule, how does the IC50 read?
The IC50 was 0.016 nM.

Which IC50 does the source give for B20 here?
The IC50 was 0.014 nM.

With B21 as the molecule, how does the IC50 read?
The IC50 was 0.095 nM.

With B22 as the molecule, how does the IC50 read?
The IC50 was 0.098 nM.

With B23 as the molecule, how does the IC50 read?
Its IC50 is 0.14 nM.

Which IC50 does the source give for B24 here?
Its IC50 is 0.232 nM.

With B25 as the molecule, how does the IC50 read?
Its IC50 is 0.16 nM.

These molecules were tested on MDA-MB-231 cells (assay: In-vitro cytotoxicity, HER2-negative negative control). Conditions: MDA-MB-231, FIG. 15.
Format: cell-based, human
Experimental: as §1
In addition, in this example, the HER2-negative MDA-MB-231 cells were chosen as a negative control to compare the ability of fused VHH7-MMAF, fused VHH8-MMAF, VHH0-MMAF, VHH0, and MMAF to inhibit the growth of cancer cells.

For B1, which “cytotoxicity in HER2-negative cells” value is on record?
Its value is “none of the substances are cytotoxic”.
